Measured values from article PMC8134030 (Biochemistry and Biophysics Reports, 2021).

T1: MBP:Ncd^CTm3A (Drosophila, UniProt P20480 333-700, H619A | R623A | H629A)
T1 sequence (looked up): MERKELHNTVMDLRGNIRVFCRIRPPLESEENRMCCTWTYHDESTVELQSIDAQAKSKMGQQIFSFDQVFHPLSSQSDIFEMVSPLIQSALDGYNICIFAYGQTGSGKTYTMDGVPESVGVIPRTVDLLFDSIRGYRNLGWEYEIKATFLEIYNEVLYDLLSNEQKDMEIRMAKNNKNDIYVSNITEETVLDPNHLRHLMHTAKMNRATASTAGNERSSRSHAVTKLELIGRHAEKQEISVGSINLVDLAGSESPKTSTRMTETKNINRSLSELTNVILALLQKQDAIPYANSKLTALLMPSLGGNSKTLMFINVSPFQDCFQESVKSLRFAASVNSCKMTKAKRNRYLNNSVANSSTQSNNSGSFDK

T2: MBP:Ncd^CTm (Drosophila, UniProt P20480 333-700)
T2 sequence (looked up): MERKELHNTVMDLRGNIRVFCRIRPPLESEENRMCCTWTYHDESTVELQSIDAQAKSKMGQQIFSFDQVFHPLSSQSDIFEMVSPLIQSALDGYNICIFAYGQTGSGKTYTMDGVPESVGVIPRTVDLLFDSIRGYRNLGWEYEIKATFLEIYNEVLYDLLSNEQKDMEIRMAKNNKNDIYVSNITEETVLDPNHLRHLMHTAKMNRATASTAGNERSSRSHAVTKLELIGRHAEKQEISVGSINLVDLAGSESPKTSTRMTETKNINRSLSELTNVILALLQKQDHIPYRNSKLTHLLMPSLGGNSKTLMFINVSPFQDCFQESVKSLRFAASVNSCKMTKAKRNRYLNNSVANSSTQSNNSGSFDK

T3: MBP:Ncd^FL (Drosophila, UniProt P20480 1-700)
T3 sequence (looked up): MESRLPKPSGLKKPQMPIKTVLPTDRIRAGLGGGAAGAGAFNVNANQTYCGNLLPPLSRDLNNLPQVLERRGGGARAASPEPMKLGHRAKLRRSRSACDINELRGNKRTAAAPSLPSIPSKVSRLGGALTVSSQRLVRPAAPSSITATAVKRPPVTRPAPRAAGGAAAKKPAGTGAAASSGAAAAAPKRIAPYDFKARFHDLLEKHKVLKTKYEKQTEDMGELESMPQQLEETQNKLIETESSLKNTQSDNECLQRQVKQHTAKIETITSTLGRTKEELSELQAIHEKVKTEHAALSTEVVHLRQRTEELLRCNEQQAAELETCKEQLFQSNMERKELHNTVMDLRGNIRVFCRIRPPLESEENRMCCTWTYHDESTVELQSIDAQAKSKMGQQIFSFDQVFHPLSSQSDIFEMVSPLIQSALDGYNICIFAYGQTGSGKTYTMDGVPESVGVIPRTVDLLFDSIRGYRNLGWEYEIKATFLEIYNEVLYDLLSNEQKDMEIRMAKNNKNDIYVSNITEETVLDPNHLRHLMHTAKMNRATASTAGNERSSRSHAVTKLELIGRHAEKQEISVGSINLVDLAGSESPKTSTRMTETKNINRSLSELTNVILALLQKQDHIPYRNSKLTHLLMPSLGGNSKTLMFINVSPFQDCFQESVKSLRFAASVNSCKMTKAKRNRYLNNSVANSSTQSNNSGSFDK

B1: Ncd^nMBD, soluble untagged prey (domain or fragment, Drosophila, UniProt P20480 1-204, looked up)
chain: MESRLPKPSGLKKPQMPIKTVLPTDRIRAGLGGGAAGAGAFNVNANQTYCGNLLPPLSRDLNNLPQVLERRGGGARAASPEPMKLGHRAKLRRSRSACDINELRGNKRTAAAPSLPSIPSKVSRLGGALTVSSQRLVRPAAPSSITATAVKRPPVTRPAPRAAGGAAAKKPAGTGAAASSGAAAAAPKRIAPYDFKARFHDLLE
B2: Ncd^CTm, soluble untagged prey (domain or fragment, Drosophila, UniProt P20480 333-700, looked up)
chain: MERKELHNTVMDLRGNIRVFCRIRPPLESEENRMCCTWTYHDESTVELQSIDAQAKSKMGQQIFSFDQVFHPLSSQSDIFEMVSPLIQSALDGYNICIFAYGQTGSGKTYTMDGVPESVGVIPRTVDLLFDSIRGYRNLGWEYEIKATFLEIYNEVLYDLLSNEQKDMEIRMAKNNKNDIYVSNITEETVLDPNHLRHLMHTAKMNRATASTAGNERSSRSHAVTKLELIGRHAEKQEISVGSINLVDLAGSESPKTSTRMTETKNINRSLSELTNVILALLQKQDHIPYRNSKLTHLLMPSLGGNSKTLMFINVSPFQDCFQESVKSLRFAASVNSCKMTKAKRNRYLNNSVANSSTQSNNSGSFDK

Experiments:
Experiment in all cases: pull-down
[1] = biological target: T1, MBP:Ncd^CTm3A
[2] = biological target: T2, MBP:Ncd^CTm
[3] = biological target: T3, MBP:Ncd^FL

Binder	fold reduction in binding affinity against WT [1]	Kd [2]	binding result [3]
B1	~10 fold	~2 µM	
B2			binds
